Values quoted from earlier work in PMC4390431.
Read-outs that look alike come from different tables or passages of the source.

Experiments:
IscU (Escherichia coli) [1] = target: IscU (Escherichia coli) (UniProt P0ACD4); assay: SPR
IscU (Escherichia coli) [2] = target: IscU (Escherichia coli) (UniProt P0ACD4); assay: SPR; remark: listed apart in the source

Sequence of UniProt P0ACD4 (P0ACD4 whole entry): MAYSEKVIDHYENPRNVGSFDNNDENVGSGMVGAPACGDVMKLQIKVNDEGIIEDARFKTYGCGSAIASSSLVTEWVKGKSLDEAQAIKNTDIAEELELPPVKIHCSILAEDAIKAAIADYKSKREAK

HscA (from UniProt P0A6Z1)
Kd (IscU (Escherichia coli) [1]): 37 µM
Kd (IscU (Escherichia coli) [2]): 0.1 µM
